{"source": "patent US20260265354A1", "about": "(JIANGSU MABWELL HEALTH PHARMACEUTICAL R AND D, published 2026)", "assay_in_all_cases": "ELISA, coated antigen, antibody at 100 ng/ml", "key": {"[1]": {"target": "T1, recombinant human Nectin-4 protein (human, UniProt Q96NY8 32-349)", "T1 construct": "Prepared in-house (Jiangsu Mabwell) by transient transfection of CHO cells; also called PVRL-4; PRR-4", "T1 sequence": "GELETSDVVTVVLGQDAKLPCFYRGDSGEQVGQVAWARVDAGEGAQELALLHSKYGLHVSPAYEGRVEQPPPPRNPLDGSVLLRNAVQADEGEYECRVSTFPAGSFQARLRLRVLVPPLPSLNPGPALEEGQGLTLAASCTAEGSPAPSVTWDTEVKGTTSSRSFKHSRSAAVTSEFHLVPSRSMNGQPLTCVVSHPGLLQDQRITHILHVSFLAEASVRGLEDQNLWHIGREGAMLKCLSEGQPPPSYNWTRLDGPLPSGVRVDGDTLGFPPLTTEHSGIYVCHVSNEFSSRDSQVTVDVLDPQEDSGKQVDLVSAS", "experimental": "(§1) Coating: Nectin-1, Nectin-2, Nectin-3, Nectin-4, Nectin-like-1, Nectin-like-2, Nectin-like-3, Nectin-like-4, and Nectin-like-5 were diluted to 5 μg/ml in coating buffer (carbonate buffer, pH 9.6) respectively. A 96-well plate was coat with 100 μl per well and incubated overnight at 2-8° C.;\n(§2) Sample loading: The plate was taken out, patted dry, and washed twice with 200 μl/well of PBST, then patted dry. The Nectin-4 antibodies prepared in Example 1 (antibody MM11, antibody R012, and antibody R036) were diluted with 1% BSA/PBST to concentrations of 10 μg/ml, 1 μg/ml, 100 ng/ml, and 10 ng/ml, respectively. 1% BSA/PBST solution for dilution was set as a blank control. 100 μl per well was added to the 96-well plate, and incubated at room temperature for 2 hours;\n(§3) Reaction termination and plate reading: 100 μl/well of 1 mol/L H3PO4 was added to terminate the reaction and the plated was read. The absorbances of wells in the plate at 450 nm with 650 nm as reference wavelength were read and recorded as OD_{450 nm-650 nm}."}, "[2]": {"target": "T2, Nectin-1 (UniProt Q15223 31-334, limits assumed)", "T2 construct": "Bought recombinant protein; also called CD111; PVRL-1", "T2 sequence (looked up)": "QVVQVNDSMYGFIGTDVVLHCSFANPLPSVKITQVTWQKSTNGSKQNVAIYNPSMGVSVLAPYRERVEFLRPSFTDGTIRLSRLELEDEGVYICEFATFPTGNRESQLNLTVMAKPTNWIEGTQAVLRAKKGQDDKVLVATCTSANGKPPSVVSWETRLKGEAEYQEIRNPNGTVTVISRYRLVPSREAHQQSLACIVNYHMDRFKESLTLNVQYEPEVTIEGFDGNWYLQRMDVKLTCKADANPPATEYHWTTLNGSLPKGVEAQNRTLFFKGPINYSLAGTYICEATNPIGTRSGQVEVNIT", "experimental": "as §1, §2, §3"}, "[3]": {"target": "T3, Nectin-like-4 (UniProt Q8NFZ8 21-324, limits assumed)", "T3 construct": "Bought recombinant protein; also called CADM4; IgSF4C", "T3 sequence (looked up)": "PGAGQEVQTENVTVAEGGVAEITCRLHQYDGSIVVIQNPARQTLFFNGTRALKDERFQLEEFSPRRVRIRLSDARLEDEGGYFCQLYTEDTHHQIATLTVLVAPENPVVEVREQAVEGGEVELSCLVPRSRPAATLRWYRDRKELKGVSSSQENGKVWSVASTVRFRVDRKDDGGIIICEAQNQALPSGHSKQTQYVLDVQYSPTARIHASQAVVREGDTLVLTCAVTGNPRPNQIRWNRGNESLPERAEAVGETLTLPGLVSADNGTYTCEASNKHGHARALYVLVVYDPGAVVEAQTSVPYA", "experimental": "as §1, §2, §3"}, "[4]": {"target": "T4, Nectin-2 (UniProt Q92692 32-360, limits assumed)", "T4 construct": "Bought recombinant protein; also called CD112; PVRL-2", "T4 sequence (looked up)": "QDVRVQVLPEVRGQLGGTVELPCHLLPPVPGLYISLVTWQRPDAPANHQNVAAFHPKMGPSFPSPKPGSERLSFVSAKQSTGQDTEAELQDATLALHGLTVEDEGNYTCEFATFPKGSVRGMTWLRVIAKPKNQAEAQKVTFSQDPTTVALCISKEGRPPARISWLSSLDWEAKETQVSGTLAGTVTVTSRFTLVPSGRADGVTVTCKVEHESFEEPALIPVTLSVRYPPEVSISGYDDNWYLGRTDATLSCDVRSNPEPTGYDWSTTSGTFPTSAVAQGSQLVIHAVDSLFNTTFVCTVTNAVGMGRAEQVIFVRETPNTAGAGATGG", "experimental": "as §1, §2, §3"}, "[5]": {"target": "T5, Nectin-like-5 (UniProt P15151 21-343)", "T5 construct": "Bought recombinant protein; also called CD155; PVR", "T5 sequence (looked up)": "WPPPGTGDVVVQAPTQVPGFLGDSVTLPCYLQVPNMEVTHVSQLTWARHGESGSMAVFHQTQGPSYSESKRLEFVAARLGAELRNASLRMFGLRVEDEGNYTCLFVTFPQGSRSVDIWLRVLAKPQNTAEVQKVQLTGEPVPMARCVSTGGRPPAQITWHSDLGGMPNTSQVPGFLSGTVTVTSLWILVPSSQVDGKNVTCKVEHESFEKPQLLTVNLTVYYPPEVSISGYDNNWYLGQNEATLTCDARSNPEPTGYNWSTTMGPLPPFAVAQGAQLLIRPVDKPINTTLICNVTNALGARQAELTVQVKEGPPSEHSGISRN", "experimental": "as §1, §2, §3"}, "[6]": {"target": "T6, Nectin-like-1 (UniProt Q8N126 25-330, limits assumed)", "T6 construct": "Bought recombinant protein; also called CADM3; IgSF4B", "T6 sequence (looked up)": "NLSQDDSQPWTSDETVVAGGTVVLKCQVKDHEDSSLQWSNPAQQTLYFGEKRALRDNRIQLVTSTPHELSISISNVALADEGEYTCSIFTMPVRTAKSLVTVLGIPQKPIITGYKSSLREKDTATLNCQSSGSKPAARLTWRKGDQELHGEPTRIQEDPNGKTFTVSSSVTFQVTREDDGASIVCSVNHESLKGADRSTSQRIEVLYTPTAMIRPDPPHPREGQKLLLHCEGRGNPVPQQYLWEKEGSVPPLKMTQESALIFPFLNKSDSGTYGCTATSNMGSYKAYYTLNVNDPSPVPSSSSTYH", "experimental": "as §1, §2, §3"}}, "data": [{"binder": "Antibody MM11 (antibody, mouse IgG1, kappa, V domains shown, Mouse monoclonal antibody from hybridoma; also called Nectin-4 mouse monoclonal antibody MM11; mouse antibody MM11) VH: DVQLQESGPGLVKPSQSLSLTCSVTGYSITSNFYWNWIRQFPGNRLEWMGYISYDGSNNYNPSLKNRISISRDTSKNQFFLKLNSVTTEDTATYYCVRADYWGQGTLVTVSA VL: DTVMTQTPLSLPVSLGDQASISCRSSQSLESSDGHAYLNWYLQKPGQSPQLLIYRVSNRFSGVLHRFSGSGSGTDFTLKISRVEAEDLGVYFCLQFTHVPFTFGSGTKLEIKR", "values": [{"measurement": "OD detection value", "setting": "[1]", "value": 1.64, "unit": "OD450 nm-650 nm"}, {"measurement": "OD detection value", "setting": "[2]", "value": 0.008, "unit": "OD450 nm-650 nm"}, {"measurement": "OD detection value", "setting": "[3]", "value": 0.007, "unit": "OD450 nm-650 nm"}, {"measurement": "OD detection value", "setting": "[4]", "value": 0.007, "unit": "OD450 nm-650 nm"}, {"measurement": "OD detection value", "setting": "[5]", "value": 0.007, "unit": "OD450 nm-650 nm"}, {"measurement": "OD detection value", "setting": "[6]", "value": 0.01, "unit": "OD450 nm-650 nm"}]}, {"binder": "Antibody R012 (antibody, V domains shown, Rabbit monoclonal antibody from phage display; also called Nectin-4 rabbit monoclonal antibody R012; rabbit antibody R012) VH: SKSVEESGGRLVTPGTPLTLTCTVSGFSLSTYAMSWVRQAPGKGLEYIGIISGRGTTYYASWLKGRFTISKTSTTVDLKITSPTTEDTATYFCARDAGISDVYTGYFNLWGQGTLVTVSS VL: QPVLAQLPSASAALGASAKLTCTLSSAHRTYTIAWYQQQQGEAPRYLMMLKSDGSYTKGTGVPDRFSGSSSGADRYLIISSVQAADEADYYCGADDSGGYVFGGGTQLTVTG", "values": [{"measurement": "OD detection value", "setting": "[1]", "value": 1.44, "unit": "OD450 nm-650 nm"}, {"measurement": "OD detection value", "setting": "[2]", "value": 0.007, "unit": "OD450 nm-650 nm"}, {"measurement": "OD detection value", "setting": "[3]", "value": 0.008, "unit": "OD450 nm-650 nm"}, {"measurement": "OD detection value", "setting": "[4]", "value": 0.007, "unit": "OD450 nm-650 nm"}, {"measurement": "OD detection value", "setting": "[5]", "value": 0.008, "unit": "OD450 nm-650 nm"}, {"measurement": "OD detection value", "setting": "[6]", "value": 0.008, "unit": "OD450 nm-650 nm"}]}, {"binder": "Antibody R036 (antibody, V domains shown, Rabbit monoclonal antibody from phage display; also called Nectin-4 rabbit monoclonal antibody R036; rabbit antibody R036) VH: SQSVEESGGRLVTPGTPLTLTCTVSGFSLSSYAMSWVRQAPGKGLEYIGIIGGRGTTYYAIWAKGRFTISKTSTTVDLKITSPTTEDTATYFCARDAGTTYVGTTYVATGYFNLWGQGTLVTVSS VL: QPVLTQPPSASAALGASAKLTCTLSSAHKTYTIAWYQQQQGEAPRYLMILKSDGSYTRGTGVPDRFSGSSSGADRYLIISSVQADDEADYYCGADDSGGYVFGGGTQLTVTG", "values": [{"measurement": "OD detection value", "setting": "[1]", "value": 1.48, "unit": "OD450 nm-650 nm"}, {"measurement": "OD detection value", "setting": "[2]", "value": 0.007, "unit": "OD450 nm-650 nm"}, {"measurement": "OD detection value", "setting": "[3]", "value": 0.007, "unit": "OD450 nm-650 nm"}, {"measurement": "OD detection value", "setting": "[4]", "value": 0.007, "unit": "OD450 nm-650 nm"}, {"measurement": "OD detection value", "setting": "[5]", "value": 0.009, "unit": "OD450 nm-650 nm"}, {"measurement": "OD detection value", "setting": "[6]", "value": 0.007, "unit": "OD450 nm-650 nm"}]}]}
